Data taken from the supplement of paper PMC9112550, “Optimization of the antimicrobial peptide Bac7 by deep mutational scanning” (BMC Biology, 2022).

Tested on: Escherichia coli TOP10
Test: shrunken log2 fold change of peptide-encoding DNA abundance (4.5 h post-induction vs induction); higher = less antimicrobial activity (less host growth inhibition)
Conditions: time post-induction: 4.5 h; library: site-saturation at positions 5, 18, 19, 20
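Note: peptides expressed intracellularly from a pBAD plasmid library in pooled LB shake-flask culture, induced with 0.3% L-arabinose, DNA abundance read by NGS, three biological replicates, DESeq2 with apeglm shrinkage.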

Sequence	shrunken log2 fold change
RRIRARPPRLPRPRPRPNVMPRP	0.153
RRIRCRPPRLPRPRPRPSHFPRP	-0.345
RRIRNRPPRLPRPRPRPFMGPRP	-0.168
RRIRFRPPRLPRPRPRPPHNPRP	0.0036
RRIRFRPPRLPRPRPRPFSIPRP	-0.401
RRIRPRPPRLPRPRPRPVIEPRP	-0.0347
RRIRHRPPRLPRPRPRPAFLPRP	0.305
RRIRQRPPRLPRPRPRPLFWPRP	-0.23
RRIRSRPPRLPRPRPRPVLLPRP	-0.315
RRIRWRPPRLPRPRPRPWFWPRP	0.123
RRIRSRPPRLPRPRPRPHMVPRP	-0.112
RRIRKRPPRLPRPRPRPMKYPRP	-0.152
RRIRWRPPRLPRPRPRPKPRPRP	0.236
RRIRMRPPRLPRPRPRPGIPPRP	0.726
RRIRTRPPRLPRPRPRPYWIPRP	-0.0377
RRIRNRPPRLPRPRPRPVGWPRP	0.855
RRIRGRPPRLPRPRPRPMDFPRP	0.213
RRIRERPPRLPRPRPRPTEAPRP	0.0834
RRIRIRPPRLPRPRPRPQTSPRP	-0.404
RRIRPRPPRLPRPRPRPWHGPRP	0.0257
RRIRARPPRLPRPRPRPTMPPRP	0.364
RRIRMRPPRLPRPRPRPHWWPRP	0.325
RRIRARPPRLPRPRPRPKTTPRP	0.0562

Sequence	shrunken log2 fold change
RRIRCRPPRLPRPRPRPQGHPRP	-0.0916
RRIRRRPPRLPRPRPRPKLYPRP	0.174
RRIRFRPPRLPRPRPRPHIHPRP	-1.17
RRIRVRPPRLPRPRPRPMPDPRP	0.00211
RRIRVRPPRLPRPRPRPAWCPRP	0.211
RRIRVRPPRLPRPRPRPRHGPRP	0.176
RRIRWRPPRLPRPRPRPLCVPRP	0.0447
RRIRHRPPRLPRPRPRPVMQPRP	-0.01
RRIRTRPPRLPRPRPRPHAKPRP	0.0187
RRIRERPPRLPRPRPRPIQTPRP	0.0703
RRIRIRPPRLPRPRPRPFFWPRP	0.364
RRIRTRPPRLPRPRPRPIRHPRP	-0.438
RRIRQRPPRLPRPRPRPAHKPRP	-0.0849
RRIRMRPPRLPRPRPRPFWDPRP	0.359
RRIRIRPPRLPRPRPRPVRNPRP	-0.0578
RRIRGRPPRLPRPRPRPDYDPRP	0.157
RRIRIRPPRLPRPRPRPFSRPRP	-0.0685
RRIRPRPPRLPRPRPRPHTAPRP	-0.205
RRIRCRPPRLPRPRPRPNVPPRP	-0.154
RRIRERPPRLPRPRPRPSHGPRP	-0.263
RRIRLRPPRLPRPRPRPQKMPRP	-0.0278
RRIRERPPRLPRPRPRPHQNPRP	0.0506
RRIRCRPPRLPRPRPRPPCNPRP	-0.355

Sequence	shrunken log2 fold change
RRIRFRPPRLPRPRPRPKQCPRP	-0.0712
RRIRMRPPRLPRPRPRPSARPRP	1.07
RRIRSRPPRLPRPRPRPKICPRP	-0.0675
RRIRPRPPRLPRPRPRPRKLPRP	0.342
RRIRHRPPRLPRPRPRPLQEPRP	-0.331
RRIRTRPPRLPRPRPRPRDNPRP	-0.239
RRIRTRPPRLPRPRPRPDKGPRP	0.0109
RRIRYRPPRLPRPRPRPTRCPRP	0.175
RRIRIRPPRLPRPRPRPNYKPRP	-0.911
RRIRIRPPRLPRPRPRPNFPPRP	-0.144
RRIRYRPPRLPRPRPRPIPSPRP	-0.0334
RRIRVRPPRLPRPRPRPWFRPRP	-0.304
RRIRSRPPRLPRPRPRPEGNPRP	-0.0126
RRIRHRPPRLPRPRPRPANTPRP	-0.0313
RRIRWRPPRLPRPRPRPCETPRP	-0.0636
RRIRPRPPRLPRPRPRPALNPRP	0.0983
RRIRMRPPRLPRPRPRPGRPPRP	0.383
RRIRTRPPRLPRPRPRPWTTPRP	0.176
RRIRSRPPRLPRPRPRPVQKPRP	0.178
RRIRVRPPRLPRPRPRPQRGPRP	0.198
RRIRKRPPRLPRPRPRPDCWPRP	0.825
RRIRERPPRLPRPRPRPWVNPRP	-0.00303
RRIRERPPRLPRPRPRPGKSPRP	-0.00212

Sequence	shrunken log2 fold change
RRIRQRPPRLPRPRPRPMSQPRP	-0.0185
RRIRKRPPRLPRPRPRPHSNPRP	0.095
RRIRDRPPRLPRPRPRPMKGPRP	0.0395
RRIRQRPPRLPRPRPRPSWIPRP	-0.225
RRIRSRPPRLPRPRPRPASQPRP	0.0365
RRIRCRPPRLPRPRPRPMGLPRP	-0.0216
RRIRVRPPRLPRPRPRPGPKPRP	0.254
RRIRIRPPRLPRPRPRPVKQPRP	0.101
RRIRTRPPRLPRPRPRPKNPPRP	-0.0748
RRIRYRPPRLPRPRPRPMDFPRP	-0.205
RRIRERPPRLPRPRPRPVNNPRP	-0.871
RRIRRRPPRLPRPRPRPPYQPRP	0.245
RRIRVRPPRLPRPRPRPNQYPRP	-0.864
RRIRNRPPRLPRPRPRPWLEPRP	-0.00992
RRIRMRPPRLPRPRPRPMDKPRP	0.3
RRIRHRPPRLPRPRPRPSRDPRP	0.234
RRIRYRPPRLPRPRPRPTPMPRP	0.843
RRIRQRPPRLPRPRPRPIVTPRP	-0.364
RRIRSRPPRLPRPRPRPIHTPRP	-0.112
RRIRMRPPRLPRPRPRPRNAPRP	2.06
RRIRRRPPRLPRPRPRPRQQPRP	-0.0361
RRIRDRPPRLPRPRPRPAMHPRP	0.527
